Assay results published in publication PMC11109247.
Where “and” joins values, the source holds several entries; their conditions need not be identical. Identical values can stand only once.

How the values were obtained:
[1] = molecular target: NiVMY G ectodomain (Nipah virus Malaysia attachment glycoprotein, residues 71-602), Strep-tagged (Nipah virus (Malaysia strain)) (UniProt Q9IH62); test: SDS-PAGE without reduction and boiling
[2] = molecular target: HeV G ectodomain (Hendra virus attachment glycoprotein, residues 71-604), Strep-tagged (Hendra virus) (UniProt O89343); test: SDS-PAGE without reduction and boiling
[3] = molecular target: prefusion soluble NiV F (sF; NiVBD fusion protein residues 26-482 with GCNt motif) (Nipah virus Bangladesh (NiVBD)); test: BLI
[4] = molecular target: prefusion soluble NiV F (sF; NiVBD fusion protein residues 26-482 with GCNt motif) (Nipah virus Bangladesh (NiVBD)); test: MST

**Q.** Which stoichiometry N [1] does the source give for “NiVMY G ectodomain (Nipah virus Malaysia attachment glycoprotein, residues 71-602), Strep-tagged (from UniProt Q9IH62 71-602) (domain or fragment)” here?
**A.** 4 and 2

**Q.** With “HeV G ectodomain (Hendra virus attachment glycoprotein, residues 71-604), Strep-tagged (from UniProt O89343 71-604) (domain or fragment)” as the substance, how does the stoichiometry N [2] read?
**A.** 4 and 2

**Q.** What does the source list for P-59 (peptide of NiVBD G, 233-247 aa)?
**A.** Kd [3]: 0.19 µM; Kd [4]: 5 µM
